This is an account of results in publication PMC7438732, “The H^+-Translocating Inorganic Pyrophosphatase From Arabidopsis thaliana Is More Sensitive to Sodium Than Its Na^+-Translocating Counterpart From Methanosarcina mazei” (Frontiers in Plant Science, 2020).

This data set concerns O=P(O)(O)OP(=O)(O)O. Put plainly: cells, lysate or membranes. The settings on record: 0 mM added NaCl, 100 mM KCl, pH 7.2, 30 °C, Mg2PPi substrate without excess Mg2+, Na+ from Na4PPi present.

Sequence of MVP (Methanosarcina mazei Go1) (chain, as listed by the source): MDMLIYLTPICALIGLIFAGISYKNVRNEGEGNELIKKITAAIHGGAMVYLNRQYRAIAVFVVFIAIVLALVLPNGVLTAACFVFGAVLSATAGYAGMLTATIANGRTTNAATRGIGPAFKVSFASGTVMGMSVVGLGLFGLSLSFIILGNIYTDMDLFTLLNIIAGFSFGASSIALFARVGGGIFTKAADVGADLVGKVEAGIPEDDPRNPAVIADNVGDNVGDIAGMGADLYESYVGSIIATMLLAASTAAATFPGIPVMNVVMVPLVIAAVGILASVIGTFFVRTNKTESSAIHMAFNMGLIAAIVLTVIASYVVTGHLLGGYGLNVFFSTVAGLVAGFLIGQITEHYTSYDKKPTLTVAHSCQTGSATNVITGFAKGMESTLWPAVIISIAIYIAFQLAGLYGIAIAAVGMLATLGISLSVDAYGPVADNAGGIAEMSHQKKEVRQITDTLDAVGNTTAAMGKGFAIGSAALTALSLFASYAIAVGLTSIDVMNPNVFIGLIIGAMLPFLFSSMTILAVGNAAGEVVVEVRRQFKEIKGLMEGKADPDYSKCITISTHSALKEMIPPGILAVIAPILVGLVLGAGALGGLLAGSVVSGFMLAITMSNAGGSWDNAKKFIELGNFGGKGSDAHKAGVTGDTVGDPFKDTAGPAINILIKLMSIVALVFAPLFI

As for MVP (Methanosarcina mazei Go1), the K0.5 amounted to 0.27 ± 0.27 mM.
